Assay results as given in patent publication US20040171117A1 (GlaxoSmithKline, published 2004).

T1: soluble human RANKL protein (shRANKL) (human, UniProt O14788 140-317, limits assumed, biotinylated at a 20:1 molar ratio of NHS-biotin to protein (competition ELISA only))
T1 sequence (looked up): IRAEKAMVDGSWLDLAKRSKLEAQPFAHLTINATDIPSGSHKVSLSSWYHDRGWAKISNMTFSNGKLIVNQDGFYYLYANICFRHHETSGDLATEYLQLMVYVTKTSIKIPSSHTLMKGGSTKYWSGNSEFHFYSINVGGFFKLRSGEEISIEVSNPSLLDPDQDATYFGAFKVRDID


Assays:
[1] = target: T1, soluble human RANKL protein (shRANKL); assay: cell-based or functional assay
[2] = target: T1, soluble human RANKL protein (shRANKL); assay: competition ELISA: soluble RANK-Fc inhibiting biotinylated shRANKL binding to coated RANK-Fc
Description: (§1) A. A competition ELISA was established using a human RANK-Fc fusion protein coated on plastic and a biotinylated soluble human RANKL protein for detection in solution. The RANK-Fc and RANKL proteins were produced in CHO cells and Pichia pastoris, respectively, and purified to >90% homogeneity. The shRANKL (soluble, human RANKL) protein was biotinylated at a 20:1 molar ratio of NHS-biotin to protein (Pierce, Rockford, Ill.) according to th manufacturer's specifications. 96-well ELISA plates were coated overnight at 4° C. with 50 ng/well ([…]) RANK-Fc in pH 9.6 carbonate-bicarbonate buffer. Plates were washed in pH 7.4 Tris-Saline buffer containing 0.1% Tween 20 and blocked for 2 h at RT in 1% BSA/PBS. Competitor proteins (RANK-Fc; death receptor 5 (DR5)-Fc; OPG-Fc; RANKL MAb 19H22) were diluted in 0.01% Tween 20/PBS and added to wells prior to the addition of biotinylated shRANKL (0.43 nM) and the combined samples were incubated for 2 hrs at room temperature. The amount of biotinylated shRANKL bound to coated RANK-Fc (+/−competitor) was measured using alkaline phosphatase conjugated streptavidin. The substrate for signal detection was 105 PNPP (Pierce Inc., Rockford, Ill.) and absorbance measured at 405 nm using a Spectra Max 340 plate reader.

[3] = target: T1, soluble human RANKL protein (shRANKL); assay: competition ELISA: inhibition of biotinylated shRANKL binding to coated RANK-Fc
Description: as §1

[4] = target: T1, soluble human RANKL protein (shRANKL); assay: not stated there (paragraph 33 defines high affinity as determined by optical biosensor analysis)

| IC50 [2] | IC50 [3] | Kd [4] | Binder | IC50, human monocyte osteoclastogenesis (formation of multinuclear cells) with 50 ng/ml human soluble RANKL plus M-CSF [1] |
| --- | --- | --- | --- | --- |
| ~6 nM |  |  | human RANK-Fc fusion protein (Fc fusion, UniProt Q9Y6Q6 30-212, looked up, Produced in CHO cells; not shown: Fc part) IAPPCTSEKHYEHLGRCCNKCEPGKYMSSKCTTTSDSVCLPCGPDEYLDSWNEEDKCLLHKVCDTGKALVAVVAGNSTTPRRCACTAGYHWSQDCECCRRNTECAPGLGAQHPLQLNKDTVCKPCLAGYFSDAFSSTDKCRPWTNCTFLGKRVEHHGTEKSDAVCSSSLPARKPPNEPHVYLP | ~0.5 µg/mL |
|  | ~2 nM | ~0.1 nM | RANKL MAb 19H22 (mouse monoclonal antibody 19H22) (antibody, IgG2b, V domains shown, also called 19H22 MAb; murine RANKL MAb 19H22) VH: EIQLQQSGAELVNPGASVKLSCTASGFNIKGTYMHWVKQRPEQGLEWIGRIDPANGNTKYDPKFQGKATITTDTSPNTAYLQLSSLTSEDTAVYYCTTQFHYYGYGGVYWGQGTLVTVSA VL: QIVLTQSPAIMSASPGEKVTMTCSASSSVSYMYWYQQKPGSSPRLLIYDTSNLASGVPVRFSGSGSGTSYSLTISRMEAEDAATYYCQQWSNFPLTFGAGTKLELKR | ~4 µg/mL |
|  | ~0.5 nM |  | OPG-Fc (Fc fusion, UniProt O00300 22-201, looked up, Construct not described; also called osteoprotegerin-Fc; not shown: Fc part; not described) ETFPPKYLHYDEETSHQLLCDKCPPGTYLKQHCTAKWKTVCAPCPDHYYTDSWHTSDECLYCSPVCKELQYVKQECNRTHNRVCECKEGRYLEIEFCLKHRSCPPGFGVVQAGTPERNTVCKRCPDGFFSNETSSKAPCRKHTNCSVFGLLLTQKGNATHDNICSGNSESTQKCGIDVTL |  |
